Source: patent US20220047716A1 (SUTRO BIOPHARMA, published 2022)
Where a chain is given by its changes, count along the chain named.

B1: SRP1848-E02 (antibody, V domains shown)
VH: EVQLVESGGGLVQPGGSLRLSCAASGFNIGKYSIHWVRQAPGKGLEWVGEIYPNDGNTDYADSVKGRFTISADTSKNTAYLQMNSLRAEDTAVYYCARGSWSWRSGYGYYLDYWGQGTLVTVSS
VL: not shown
B2: SRP1848-F06 (antibody, V domains shown)
VH: B1 VH with G30S, K31L, Y32S, S33Y, E50G, Y52S, N54I, S100F, S102A
VL: not shown
B3: SRP1848-F05 (antibody, V domains shown)
VH: B1 VH with G30S, Y32S, N57S, S102A, G108S, Y110F
VL: not shown
B4: SRP1848-F09 (antibody, V domains shown)
VH: B1 VH with G30S, K31N, Y32H, S33Y, E50G, Y52S, N54L, N57Y, S100A, L111I
VL: not shown
B5: SRP1848-E05 (antibody, V domains shown)
VH: B1 VH with L20V, K31V, S33Y, E50G, Y52T, N57Y, S100F, S102A
VL: not shown
B6: SRP1848-F10 (antibody, V domains shown)
VH: B1 VH with G30S, K31N, Y32N, E50S, Y52F, N57Y, S102F
VL: not shown
B7: SRP1848-F07 (antibody, V domains shown)
VH: B1 VH with G30S, K31N, Y32H, N57I, R87S, S102D, G108S
VL: not shown
B8: SRP1848-E07 (antibody, V domains shown)
VH: B1 VH with G30R, Y32S, Y52F, N54Y, N57S, S63N, S100A, L111I
VL: not shown
B9: SRP1848-F02 (antibody, V domains shown)
VH: B1 VH with G30R, K31T, E50S, Y52F, N57T, F68L, R104Q, S105A
VL: not shown
B10: SRP1848-F01 (antibody, V domains shown)
VH: B1 VH with G30R, K31T, E50S, Y52F, N57T, S102A, S105A, G108S
VL: not shown
B11: SRP1848-H01 (antibody, V domains shown)
VH: EVQLVESGGGLVQPGGSLRLSCAASGFNIRTQSIHWVRQAPGKGLEWIGDIFPIDGITDYADSVKGRFTISADTSKNTAYLQMNSLRAEDTAVYYCARGSWSWPSGMDYYLDYWGQGTLVTVSS
VL: not shown
B12: SRP1848-G01 (antibody, V domains shown)
VH: B1 VH with G30S, K31R, Y32H, E50W, Y52A, N57S, S102A, G108S, Y110F
VL: not shown
B13: SRP1848-G03 (antibody, V domains shown)
VH: EVQLVESGGGLVQPGGSLRLSCAASGFNISTYYIHWVRQAPGKGLEWVGGITPSDGFTDYADSVKGRSTISADTSKNTAYLQMNSLRAEDTAVYYCARGSWSWPSGHGYFLDYWGQGTLVTVSS
VL: not shown
B14: SRP1848-F11 (antibody, V domains shown)
VH: EVQLVESGGGLVQPGGSLRLSCAASGFNISNNYIHWVRQAPGKGLEWVGGITPIDGNTDYADSVKGRFTISADTSMNTAYLQMNSLRAEDTAVYYCARGSWYWRAGYGYYLDYWGQGALVTVSS
VL: not shown

Molecular target: human folate receptor alpha (hFOLR1) (human, UniProt P15328 25-234)
Sequence (P15328 25-234 limits assumed): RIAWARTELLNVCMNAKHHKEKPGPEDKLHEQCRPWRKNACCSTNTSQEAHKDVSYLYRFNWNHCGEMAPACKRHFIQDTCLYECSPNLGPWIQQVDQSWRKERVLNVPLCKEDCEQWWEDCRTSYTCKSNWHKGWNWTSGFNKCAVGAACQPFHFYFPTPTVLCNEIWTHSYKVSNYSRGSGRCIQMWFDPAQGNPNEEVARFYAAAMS
Test: cell-based or functional assay

| Binder | Igrov 2° antibody cell killing EC50 [nM] | Igrov 2° antibody cell killing Span [%] | KB 2° antibody cell killing EC50 [nM] | KB 2° antibody cell killing Span [%] |
| --- | --- | --- | --- | --- |
| B1 | 0.025 | 71 | 0.046 | 93 |
| B2 | 0.032 | 77 | 0.066 | 94 |
| B3 | 0.015 | 74 | 0.061 | 94 |
| B4 | 0.05 | 79 | 0.056 | 93 |
| B5 | 0.027 | 78 | 0.071 | 95 |
| B6 | 0.009 | 68 | 0.038 | 94 |
| B7 | 0.018 | 71 | 0.057 | 92 |
| B8 | 0.013 | 73 | 0.059 | 94 |
| B9 | 0.009 | 54 | 0.054 | 92 |
| B10 | 0.018 | 69 | 0.047 | 91 |
| B11 | 0.016 | 67 | 0.049 | 96 |
| B12 | 0.022 | 66 | 0.07 | 91 |
| B13 | 0.021 | 76 | 0.064 | 91 |
| B14 | 0.017 | 70 | 0.054 | 91 |
